Results on four molecules are retold here after US20160052998A1 (GlaxoSmithKline, published 2016).

Substitutions are numbered along the chain they refer to. Several values for one entry are separate records, joined by “and”; a condition that tells them apart may be missing. Equal values may be shown once.

The chains are these.
B1: Rat Serum Albumin (other, UniProt P02770 25-608, looked up)
chain: EAHKSEIAHRFKDLGEQHFKGLVLIAFSQYLQKCPYEEHIKLVQEVTDFAKTCVADENAENCDKSIHTLFGDKLCAIPKLRDNYGELADCCAKQEPERNECFLQHKDDNPNLPPFQRPEAEAMCTSFQENPTSFLGHYLHEVARRHPYFYAPELLYYAEKYNEVLTQCCTESDKAACLTPKLDAVKEKALVAAVRQRMKCSSMQRFGERAFKAWAVARMSQRFPNAEFAEITKLATDVTKINKECCHGDLLECADDRAELAKYMCENQATISSKLQACCDKPVLQKSQCLAEIEHDNIPADLPSIAADFVEDKEVCKNYAEAKDVFLGTFLYEYSRRHPDYSVSLLLRLAKKYEATLEKCCAEGDPPACYGTVLAEFQPLVEEPKNLVKTNCELYEKLGEYGFQNAVLVRYTQKAPQVSTPTLVEAARNLGRVGTKCCTLPEAQRLPCVEDYLSAILNRLCVLHEKTPVSEKVTKCCSGSLVERRPCFSALTVDETYVPKEFKAETFTFHSDICTLPDKEKQIKKQTALAELVKHKPKATEDQLKTVMGDFAQFVDKCCKAADKDNCFATEGPNLVARSKEALA
notes: mature; 'mature' inferred from purified serum protein; also called RSA; rat SA
B2: DOM7r-92-4 (other)
VH: EVQLLESGGGLVQPGGSLRLSCAASGFTFDTSSMLWVRQAPGKGLEWVSVIHQSGTPTYYADSVKGRFTISRDNSKNTLYLQMNSLRAEDTAVYYCAKFPSTHGKFDYWGQGTLVTVSS
notes: Anti-serum albumin VH dAb (VH AlbudAb); also called DOM7h-92-4
B3: DOM7r31 (other)
VH: EVQLLESGGGLVQPGGSLRLSCTASGFTFRHYRMGWVRQAPGKGLEWVSWIRPDGTFTYYADSVKGRFTISRDNSKNTLYLQMNSLRAEDTAVYYCAKSYMGDRFDYWGQGTLVTVSS
notes: Anti-serum albumin VH dAb (VH AlbudAb)
B4: DOM7r-31-14 (other)
VH: B3 VH with G102A
notes: as for B3

The target in test [1] is T1, DOM7h-11-15/Exendin-4 fusion DMS number 7143.
T1 construct: Exendin-4 - (G4S)3 - AlbudAb, made in HEK293E; also called DMS7143
Briefly: SPR (BIAcore); KD as listed in PK table.

The target in test [2] is T2, mouse serum albumin (mouse, UniProt P07724 25-608).
T2 construct: mature; 'mature' inferred from purified serum protein; also called MSA; mouse SA
Briefly: SPR (BIAcore), albumin amine-coupled to CM5 chip. On the technique in general: In SPR one partner is held on a chip, and binding of the other changes the refractive index at the surface.

The target in test [3] is T3, Human Serum Albumin (human, UniProt P02768 25-609).
T3 construct: also called HSA; human SA
Kind of test: SPR (BIAcore), albumin amine-coupled to CM5 chip.

The target of test [4] is B1. Briefly: SPR (BIAcore), albumin amine-coupled to CM5 chip.
Test [5] addresses T4, Cynomolgus monkey Serum Albumin (Cynomolgus monkey, UniProt A2V9Z4 25-608).
T4 construct: mature; 'mature' inferred from purification out of serum; also called CSA; cyno serum albumin
Kind of test: SPR (BIAcore), albumin amine-coupled to CM5 chip.

The target in test [6] is T2, mouse serum albumin. Briefly: SPR (BIAcore), albumin amine-coupled to CM5 chip; no KD given.
Test [7] deals with T3, Human Serum Albumin. The description is as above.
In test [8] the target is B1. The test is described as above.
For test [9], the target named is T4, Cynomolgus monkey Serum Albumin. Described as above.
For test [10], the target named is T2, mouse serum albumin. Briefly: SPR (BIAcore); multiple independent measurements.
The target of test [11] is T2, mouse serum albumin. Briefly: SPR (BIAcore); multiple independent measurements (second of two values of 12).
In test [12] the target is T2, mouse serum albumin. Briefly: SPR (BIAcore); multiple independent measurements (first of two values of 12).

As usually defined, the Kd is the free concentration of one partner at which half of the binding sites on the other are occupied at equilibrium, for simple one-to-one binding. B1 came in with a Kd in test [1] of 273 nM.

Consider B2, for which the Kd was determined as 110 nM with mouse serum albumin [2], 130 nM in the test with Human Serum Albumin [3], 260 nM with Rat Serum Albumin [4] and 98 nM in test [5].

With B3, the binding result (with mouse serum albumin [6]; with Human Serum Albumin [7]; with Rat Serum Albumin [8]; in [9]) was “binds” each time.

Turning to B4, the Kd was 6 nM and 14.2 nM with mouse serum albumin [10]; 12 nM with mouse serum albumin [11]; 12 nM in the test with mouse serum albumin [12].
